B1: SULT1A1 Rattus norvegicus: aryl sulfotransferase SULT1A1 from Rattus norvegicus (SEQ ID NO: 1), expressed in host cells (protein, listed as Rattus norvegicus)
chain: MEFSRPPLVHVKGIPLIKYFAETIGPLQNFTAWPDDLLISTYPKSGTTWMSEILDMIYQGGKLEKCGRAPIYARVPFLEFKCPGVPSGLETLEETPAPRLLKTHLPLSLLPQSLLDQKVKVIYIARNAKDVVVSYYNFYNMAKLHPDPGTWDSFLENFMDGEVSYGSWYQHVKEWWELRHTHPVLYLFYEDIKENPKREIKKILEFLGRSLPEETVDSIVHHTSFKKMKENCMTNYTTIPTEIMDHNVSPFMRKGTTGDWKNTFTVAQNERFDAHYAKTMTDCDFKFRCEL
B2: SULT1A1 Rattus norvegicus (Codon-optimized for E. coli): SULT1A1 from rat expressed from a gene codon-optimized for E. coli (protein, UniProt P17988 1-291, looked up)
Sulfotransferase 1A1: B1 chain

Assays:
[1] = tested on: pHCA; assay: Percent conversion of substrate by E. coli cells expressing sulfotransferases; format: cell-based, Escherichia coli; details: 100 μM pHCA, M9 medium, overnight 37° C.
Procedure: (§1) The concentration of p-courmaric acid (pHCA) and zosteric acid in the supernatant was quantified by high performance (HPLC) and compared to chemical standards. HPLC was done on a Thermo setup using a HS-F5 column and mobile phases: 5 mM ammonium formate pH 4.0 (A) and acetonitrile (B) at 1.5 mL min-1, using a gradient elution starting at 5% B. From 0.5 min after injection to 7 min, the fraction of B increased linearly from 5% to 60%, and between 9.5 min and 9.6 the fraction of B decreased back to 5%, and remaining there until 12 min. pHCA and zosteric acid were quantified by measuring absorbance at 277 nm.
(§2) Different sulfotransferases were examined for their substrate specificities against three substrates. We tested the sulfotransferases mentioned in example 1, as well as additional ones. The genes encoding these were cloned as described in example 1 using the primers shown in the table below from cDNA libraries of the respective organisms, except for the SULT1A1 from rat (Rattus norvegicus) codon-optimized for E. coli (described above). The resulting vectors were transformed into BL21(DE3)pLysS.
(§3) The resulting strains were grown in M9 medium containing either 100 μM pHCA, 95 μM resveratrol or 87 M kaempferol. The cultures were grown overnight at 37° C., 300 rpm. The following day the supernatants were isolated and examined by HPLC as described in example 1.

[2] = tested on: resveratrol; assay: as above; format: cell-based, Escherichia coli; details: 95 μM resveratrol, M9 medium, overnight 37° C.
Procedure: as §1, §2, §3

[3] = tested on: kaempferol; assay: as above; format: cell-based, Escherichia coli; details: 87 μM kaempferol, M9 medium, overnight 37° C.
Procedure: as §1, §2, §3

[4] = tested on: p-coumaric acid; assay: Production of zosteric acid in Saccharomyces cerevisiae expressing SULT1A1; format: cell-based; details: strain CEN.PK102-5B, modified Delft medium, 10 mM p-coumaric acid, overnight 30° C., supernatant
Procedure: as §1
The gene encoding aryl sulfotransferase SULT1A (Example 1) was cloned after a TEF1 promoter into an episomal plasmid with a 2-micron origin of replication as follows. The gene was amplified by PCR using primers CBJP633 and CBJP634. Alternatively, the gene was codon-optimized for E. coli and synthesized by GeneArt and amplified by primers CBJP635 and CBJP636. The TEF1 promoter (Jensen et al., 2014, FEMS Yeast Res 14: 238-248) was amplified by PCR using the primers PTEF1_fw and PTEF1_rv. Plasmid pCfB132 (Jensen et al., supra) was digested by restriction enzymes AsiSI and Nt.Bsml. […]

[5] = tested on: pHCA; assay: Production of zosteric acid in E. coli from pHCA through heterologous expression of sulfotransferases; format: cell-based, Escherichia coli; details: culture media; M9 glucose, 0.1 mM IPTG, 0.1 mM pHCA, four days of growth
From the text: A range of aryl sulfotransferases including SULT1A1 Rattus norvegicus (SEQ ID NO: 1), SULT1A1 Homo sapiens (SEQ ID NO: 2), SULT1A1 Equus caballus (SEQ ID NO: 3), SULT1A1 Sus scrofa domesticus (SEQ ID NO: 4), SULT1A1 Canis lupus familiaris (SEQ ID NO: 5) and SULT1E1 Gallus gallus domesticus (SEQ ID NO: 6) were expressed in Escherichia coli. […]. The nucleotide sequence of the gene encoding SEQ ID NO: 2 was codon optimized for expression in Escherichia coli (GeneArt, Life Technologies) and amplified by PCR using the primers in Table 1. The pETDuet-1 plasmid was digested with restriction endonucleases Ncol and Sal. The PCR products were then individually cloned into the plasmid pETDuet-1 using the Gibson reaction (New England Biolabs). The resulting plasmids were transformed into BL21(DE3)pLysS (Life Technologies).
The strains were grown in M9 minimal media containing glucose as a carbon source, and 0.1 mM IPTG for induction of gene expression as well as 0.1 mM p-coumaric acid (pHCA). After four days of growth, samples were withdrawn by filtration and analyzed by HPLC.
as §1
Zosteric acid was formed with an aryl sulfotransferase heterologously expressed in a microorganism exemplified by E. coli supplied with the substrate.

Molecule | percent conversion of pHCA [1] [%] | percent conversion of resveratrol [2] [%] | percent conversion of kaempferol [3] [%] | μM ZA (averages and standard deviations of replicate experiments) [4] [µM] | Zosteric acid formed [5] [mM] | pHCA remaining [5] [mM]
B1 | 93 | 93 | 95 | 37.8 ± 5.7 | 0.10 | 0.02
B2 | 73 | 58 | 38 | 46.2 ± 3.5 | – | –

Reference: patent US11390894B2, “Biological processes for the production of aryl sulfates” (CysBio ApS, priority 2014, dated 2022)
